Measurements: the supplement of paper PMC10567573

B1: ZNF8 (parent)
chain: KPYTCSVCGKSFSRTTCLFLHLRT

Variants of: B1
Assay: protein stability index of a GFP-peptide fusion (GPS, HEK-293T) (PSI 1-6); higher = more stable
Settings: c terminus: a fixed tail appended
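Also: lentivirally expressed fusions sorted by FACS into six bins by GFP to DsRed ratio, PSI derived from sequencing read proportions per bin multiplied by bin number.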

Variant	protein stability index
KPYTCSVCGKHFSRTTCLFLHLRT [S11H]	3.04
KPYTCSVCGKLFSRTTCLFLHLRT [S11L]	1.69
KPYTCSVCGKPFSRTTCLFLHLRT [S11P]	1.72
KPYTCSVCGKRFSRTTCLFLHLRT [S11R]	2.12
KPYTCSVCGKDFSRTTCLFLHLRT [S11D]	1.88
KPYTCSVCGKGFSRTTCLFLHLRT [S11G]	1.51
KPYTCSVCGKNFSRTTCLFLHLRT [S11N]	2.12
KPYTCSVCGKMFSRTTCLFLHLRT [S11M]	1.76
KPYTCSVCGKFFSRTTCLFLHLRT [S11F]	1.72
KPYTCSVCGKWFSRTTCLFLHLRT [S11W]	1.71
KPYTCSVCGKIFSRTTCLFLHLRT [S11I]	2.33
KPYTCSVCGKYFSRTTCLFLHLRT [S11Y]	2.2
KPYTCSVCGKQFSRTTCLFLHLRT [S11Q]	2.21
KPYTCSVCGKCFSRTTCLFLHLRT [S11C]	1.91
KPYTCSVCGKEFSRTTCLFLHLRT [S11E]	2.67
KPYTCSVCGKKFSRTTCLFLHLRT [S11K]	2.92
KPYTCSVCGKVFSRTTCLFLHLRT [S11V]	1.84
KPYTCSVCGKAFSRTTCLFLHLRT [S11A]	2.08
KPYTCSVCGKTFSRTTCLFLHLRT [S11T]	2.2
KPYTCSPCGKSFSRTTCLFLHLRT [V7P]	2.7
KPYTCSACGKSFSRTTCLFLHLRT [V7A]	2.12
KPYTCSTCGKSFSRTTCLFLHLRT [V7T]	1.91
KPYTCSRCGKSFSRTTCLFLHLRT [V7R]	1.68
KPYTCSNCGKSFSRTTCLFLHLRT [V7N]	2.15

Variant	protein stability index
KPYTCSHCGKSFSRTTCLFLHLRT [V7H]	1.44
KPYTCSCCGKSFSRTTCLFLHLRT [V7C]	2.82
KPYTCSYCGKSFSRTTCLFLHLRT [V7Y]	2.3
KPYTCSFCGKSFSRTTCLFLHLRT [V7F]	2.8
KPYTCSKCGKSFSRTTCLFLHLRT [V7K]	1.75
KPYTCSICGKSFSRTTCLFLHLRT [V7I]	2.2
KPYTCSLCGKSFSRTTCLFLHLRT [V7L]	2.87
KPYTCSMCGKSFSRTTCLFLHLRT [V7M]	2.29
KPYTCSECGKSFSRTTCLFLHLRT [V7E]	2.09
KPYTCSWCGKSFSRTTCLFLHLRT [V7W]	1.85
KPYTCSGCGKSFSRTTCLFLHLRT [V7G]	2.3
KPYTCSSCGKSFSRTTCLFLHLRT [V7S]	2.04
KPYTCSDCGKSFSRTTCLFLHLRT [V7D]	1.71
KPYTCSQCGKSFSRTTCLFLHLRT [V7Q]	3.32
KPYTCSVCGKSFERTTCLFLHLRT [S13E]	2.57
KPYTCSVCGKSFHRTTCLFLHLRT [S13H]	1.63
KPYTCSVCGKSFARTTCLFLHLRT [S13A]	2.43
KPYTCSVCGKSFLRTTCLFLHLRT [S13L]	1.48
KPYTCSVCGKSFGRTTCLFLHLRT [S13G]	1.62
KPYTCSVCGKSFDRTTCLFLHLRT [S13D]	1.94
KPYTCSVCGKSFFRTTCLFLHLRT [S13F]	1.82
KPYTCSVCGKSFIRTTCLFLHLRT [S13I]	1.67
KPYTCSVCGKSFKRTTCLFLHLRT [S13K]	2.06
KPYTCSVCGKSFCRTTCLFLHLRT [S13C]	2.71

Variant	protein stability index
KPYTCSVCGKSASRTTCLFLHLRT [F12A]	1.76
KPYTCSVCGKSLSRTTCLFLHLRT [F12L]	1.83
KPYTCSVCGKSDSRTTCLFLHLRT [F12D]	2.22
KPYTCSVCGKSSSRTTCLFLHLRT [F12S]	1.87
KPYTCSVCGKSGSRTTCLFLHLRT [F12G]	2.27
KPYTCSVCGKSISRTTCLFLHLRT [F12I]	3.27
KPYTCSVCGKSPSRTTCLFLHLRT [F12P]	1.75
KPYTCSVCGKSKSRTTCLFLHLRT [F12K]	2.88
KPYTCSVCGKSRSRTTCLFLHLRT [F12R]	1.62
KPYTCSVCGKSTSRTTCLFLHLRT [F12T]	1.37
KPYTCSVCGKSYSRTTCLFLHLRT [F12Y]	2.15
KPYTCSVCGKSNSRTTCLFLHLRT [F12N]	2.4
KPYTCSVCGKSQSRTTCLFLHLRT [F12Q]	1.58
KPYTCSVCGKSMSRTTCLFLHLRT [F12M]	2.45
KPYTCSVCGKSWSRTTCLFLHLRT [F12W]	1.72
KPYTCSVCGKSESRTTCLFLHLRT [F12E]	1.77
KPYTCSVCGKSVSRTTCLFLHLRT [F12V]	1.73
KPYTCSVCGKSCSRTTCLFLHLRT [F12C]	1.54
KPYTCSVCGKSHSRTTCLFLHLRT [F12H]	2.35
KPYTCSVCIKSFSRTTCLFLHLRT [G9I]	2.92
KPYTCSVCPKSFSRTTCLFLHLRT [G9P]	1.72
KPYTCSVCCKSFSRTTCLFLHLRT [G9C]	2.43
KPYTCSVCLKSFSRTTCLFLHLRT [G9L]	2.25
KPYTCSVCSKSFSRTTCLFLHLRT [G9S]	1.72

Variant	protein stability index
KPYTCSVCRKSFSRTTCLFLHLRT [G9R]	2.2
KPYTCSVCNKSFSRTTCLFLHLRT [G9N]	1.49
KPYTCSVCEKSFSRTTCLFLHLRT [G9E]	1.71
KPYTCSVCKKSFSRTTCLFLHLRT [G9K]	1.87
KPYTCSVCDKSFSRTTCLFLHLRT [G9D]	1.8
KPYTCSVCQKSFSRTTCLFLHLRT [G9Q]	1.89
KPYTCSVCTKSFSRTTCLFLHLRT [G9T]	1.5
KPYTCSVCAKSFSRTTCLFLHLRT [G9A]	2.76
KPYTCSVCYKSFSRTTCLFLHLRT [G9Y]	1.97
KPYTCSVCHKSFSRTTCLFLHLRT [G9H]	2.24
KPYTCSVCMKSFSRTTCLFLHLRT [G9M]	2.38
KPYTCSVCFKSFSRTTCLFLHLRT [G9F]	2.12
KPDTCSVCGKSFSRTTCLFLHLRT [Y3D]	2.07
KPCTCSVCGKSFSRTTCLFLHLRT [Y3C]	1.7
KPHTCSVCGKSFSRTTCLFLHLRT [Y3H]	2.46
KPWTCSVCGKSFSRTTCLFLHLRT [Y3W]	1.7
KPMTCSVCGKSFSRTTCLFLHLRT [Y3M]	2.3
KPQTCSVCGKSFSRTTCLFLHLRT [Y3Q]	2.01
KPITCSVCGKSFSRTTCLFLHLRT [Y3I]	1.7
KPGTCSVCGKSFSRTTCLFLHLRT [Y3G]	1.61
KPLTCSVCGKSFSRTTCLFLHLRT [Y3L]	2.19
KPFTCSVCGKSFSRTTCLFLHLRT [Y3F]	1.4
KPNTCSVCGKSFSRTTCLFLHLRT [Y3N]	1.71
KPPTCSVCGKSFSRTTCLFLHLRT [Y3P]	1.69

Variant	protein stability index
KPSTCSVCGKSFSRTTCLFLHLRT [Y3S]	1.74
KPKTCSVCGKSFSRTTCLFLHLRT [Y3K]	1.91
KPVTCSVCGKSFSRTTCLFLHLRT [Y3V]	2.1
KPTTCSVCGKSFSRTTCLFLHLRT [Y3T]	2.4
KPRTCSVCGKSFSRTTCLFLHLRT [Y3R]	1.76
KPETCSVCGKSFSRTTCLFLHLRT [Y3E]	1.76
KPYTCSVCGRSFSRTTCLFLHLRT [K10R]	1.87
KPYTCSVCGTSFSRTTCLFLHLRT [K10T]	2.25
KPYTCSVCGESFSRTTCLFLHLRT [K10E]	1.47
KPYTCSVCGISFSRTTCLFLHLRT [K10I]	1.65
KPYTCSVCGPSFSRTTCLFLHLRT [K10P]	2.84
KPYTCSVCGVSFSRTTCLFLHLRT [K10V]	1.83
KPYTCSVCGYSFSRTTCLFLHLRT [K10Y]	2.21
KPYTCSVCGHSFSRTTCLFLHLRT [K10H]	1.86
KPYTCSVCGGSFSRTTCLFLHLRT [K10G]	2.24
KPYTCSVCGCSFSRTTCLFLHLRT [K10C]	1.77
KPYTCSVCGLSFSRTTCLFLHLRT [K10L]	1.94
KPYTCSVCGMSFSRTTCLFLHLRT [K10M]	2.88
KPYTCSVCGDSFSRTTCLFLHLRT [K10D]	2.03
KPYTCSVCGASFSRTTCLFLHLRT [K10A]	1.79
KPYTCSVCGSSFSRTTCLFLHLRT [K10S]	1.52
KPYTCSVCGFSFSRTTCLFLHLRT [K10F]	1.85
KPYTCSVCGWSFSRTTCLFLHLRT [K10W]	2.83
KPYTCSVCGQSFSRTTCLFLHLRT [K10Q]	2.18

Variant	protein stability index
KPYTCSVCGNSFSRTTCLFLHLRT [K10N]	2
KPYTWSVCGKSFSRTTCLFLHLRT [C5W]	2.06
KPYTLSVCGKSFSRTTCLFLHLRT [C5L]	3.52
KPYTQSVCGKSFSRTTCLFLHLRT [C5Q]	2.29
KPYTNSVCGKSFSRTTCLFLHLRT [C5N]	2.43
KPYTMSVCGKSFSRTTCLFLHLRT [C5M]	2.18
KPYTESVCGKSFSRTTCLFLHLRT [C5E]	3.3
KPYTSSVCGKSFSRTTCLFLHLRT [C5S]	1.56
KPYTASVCGKSFSRTTCLFLHLRT [C5A]	1.97
KPYTGSVCGKSFSRTTCLFLHLRT [C5G]	3.6
KPYTTSVCGKSFSRTTCLFLHLRT [C5T]	3.19
KPYTFSVCGKSFSRTTCLFLHLRT [C5F]	2.46
KPYTISVCGKSFSRTTCLFLHLRT [C5I]	3.17
KPYTDSVCGKSFSRTTCLFLHLRT [C5D]	1.96
KPYTKSVCGKSFSRTTCLFLHLRT [C5K]	3.15
KPYTYSVCGKSFSRTTCLFLHLRT [C5Y]	2.21
KPYTPSVCGKSFSRTTCLFLHLRT [C5P]	2.38
KPYTCFVCGKSFSRTTCLFLHLRT [S6F]	2.08
KPYTCKVCGKSFSRTTCLFLHLRT [S6K]	2.46
KPYTCAVCGKSFSRTTCLFLHLRT [S6A]	2.4
KPYTCWVCGKSFSRTTCLFLHLRT [S6W]	1.66
KPYTCLVCGKSFSRTTCLFLHLRT [S6L]	1.93
KPYTCVVCGKSFSRTTCLFLHLRT [S6V]	2.45
KPYTCMVCGKSFSRTTCLFLHLRT [S6M]	1.63

Variant	protein stability index
KPYTCNVCGKSFSRTTCLFLHLRT [S6N]	2.39
KPYTCGVCGKSFSRTTCLFLHLRT [S6G]	2.48
KPYTCEVCGKSFSRTTCLFLHLRT [S6E]	1.85
KPYTCDVCGKSFSRTTCLFLHLRT [S6D]	2.28
KPYTCCVCGKSFSRTTCLFLHLRT [S6C]	1.71
KPYTCPVCGKSFSRTTCLFLHLRT [S6P]	2.25
KPYTCIVCGKSFSRTTCLFLHLRT [S6I]	1.41
KPYTCQVCGKSFSRTTCLFLHLRT [S6Q]	2.13
KPYTCYVCGKSFSRTTCLFLHLRT [S6Y]	1.6
KPYTCTVCGKSFSRTTCLFLHLRT [S6T]	1.73
KPYTCHVCGKSFSRTTCLFLHLRT [S6H]	2.15
KPYTCRVCGKSFSRTTCLFLHLRT [S6R]	2.14
KPYTCSVIGKSFSRTTCLFLHLRT [C8I]	2.07
KPYTCSVWGKSFSRTTCLFLHLRT [C8W]	2.5
KPYTCSVEGKSFSRTTCLFLHLRT [C8E]	3.46
KPYTCSVFGKSFSRTTCLFLHLRT [C8F]	4.22
KPYTCSVKGKSFSRTTCLFLHLRT [C8K]	2.45
KPYTCSVRGKSFSRTTCLFLHLRT [C8R]	3.12
KPYTCSVQGKSFSRTTCLFLHLRT [C8Q]	4.56
KPYTCSVAGKSFSRTTCLFLHLRT [C8A]	2.56
KPYTCSVVGKSFSRTTCLFLHLRT [C8V]	1.97
KPYTCSVMGKSFSRTTCLFLHLRT [C8M]	2.19
KPYTCSVSGKSFSRTTCLFLHLRT [C8S]	3.95
KPYTCSVDGKSFSRTTCLFLHLRT [C8D]	3.17

Variant	protein stability index
KPYTCSVLGKSFSRTTCLFLHLRT [C8L]	2.28
KPYWCSVCGKSFSRTTCLFLHLRT [T4W]	1.62
KPYLCSVCGKSFSRTTCLFLHLRT [T4L]	2.19
KPYQCSVCGKSFSRTTCLFLHLRT [T4Q]	1.49
KPYFCSVCGKSFSRTTCLFLHLRT [T4F]	1.9
KPYVCSVCGKSFSRTTCLFLHLRT [T4V]	1.69
KPYHCSVCGKSFSRTTCLFLHLRT [T4H]	1.8
KPYICSVCGKSFSRTTCLFLHLRT [T4I]	2.36
KPYPCSVCGKSFSRTTCLFLHLRT [T4P]	1.86
KPYNCSVCGKSFSRTTCLFLHLRT [T4N]	1.67
KPYYCSVCGKSFSRTTCLFLHLRT [T4Y]	1.63
KPYGCSVCGKSFSRTTCLFLHLRT [T4G]	2.51
KPYACSVCGKSFSRTTCLFLHLRT [T4A]	1.43
KPYSCSVCGKSFSRTTCLFLHLRT [T4S]	1.48
KPYRCSVCGKSFSRTTCLFLHLRT [T4R]	2.4
KPYDCSVCGKSFSRTTCLFLHLRT [T4D]	2.75
KPYECSVCGKSFSRTTCLFLHLRT [T4E]	1.77
KPYCCSVCGKSFSRTTCLFLHLRT [T4C]	2.1
KPYMCSVCGKSFSRTTCLFLHLRT [T4M]	1.83
KPYKCSVCGKSFSRTTCLFLHLRT [T4K]	2.04
